Data: paper PMC9307154

Molecular target: Bovine leukemia virus retropepsin (BLV-PR), mature recombinant protease (Bovine leukemia virus)
Assay: enzyme kinetics (initial rate against enzyme concentration); dimer to monomers; BLV-PR 5-200 nM (as monomer) preincubated 15 min at 25°C in reaction buffer (250 mM phosphate pH 5.6, 500 mM NaCl, 10 mM EDTA, 5 mM DTT, 1% glycerol, 1% DMSO), then 1 uM MA-CA fluorogenic substrate, 37°C, rate of the first 3 min, fit of quadratic Eq 1

Substance “Bovine leukemia virus retropepsin (BLV-PR), mature recombinant protease (enzyme)” has a Kd of 160 nM.
